Data published in publication PMC10388152 (PNAS Nexus, 2023).

Target: the molecule itself
Test: dynamic light scattering

B1: C-terminal truncated ScBfr (ScBfr 1-152: residues 153-167 removed) (domain or fragment, Streptomyces coelicolor, UniProt Q9S2N0 1-152, looked up)
chain: MQGDPEVIEFLNEQLTAELTAINQYFLHAKLQDHKGWTKLAKYTRAESFDEMRHAEVLTDRILLLDGLPNYQRLFHVRVGQSVTEMFQADREVELEAIDRLRRGIEVMRAKHDITSANVFEAILADEEHHIDYLETQLDLIEKLGESLYLST
- stoichiometry N: 24
